The record followed here is paper PMC10746786 (2023).

The target in one assay is PRRC2A. The experiment in a line: co-immunoprecipitation followed by mass spectrometry. The note with it: FLAG-tagged EIF4G2 transfected into HEK293T cells; corrected for EIF4G2 levels in IP; read off a plot.
Another assay has as its target PRRC2B. Described as above. The note with it: FLAG-tagged EIF4G2 transfected into HEK293T cells; corrected for EIF4G2 levels in IP; read off a plot.

As for “FLAG-tagged EIF4G2 WT (from UniProt P78344) R165C”, in the assay with PRRC2A, the ratio to parent is 3. For “FLAG-tagged EIF4G2 WT (from UniProt P78344) R178Q”, the ratio to parent in the assay with PRRC2A came to 3; with PRRC2B, 2.3.
